In article PMC10696467 (The Journal of Biological Chemistry, 2023):
Where a chain is given by its changes, count along the chain named. Names and notes keep the numbering of the source.

B1: speckle-type POZ protein (SPOP) WT, residues 28-359 (domain or fragment)
chain: KVVKFSYMWTINNFSFCREEMGEVIKSSTFSSGANDKLKWCLRVNPKGLDEESKDYLSLYLLLVSCPKSEVRAKFKFSILNAKGEETKAMESQRAYRFVQGKDWGFKKFIRRDFLLDEANGLLPDDKLTLFCEVSVVQDSVNISGQNTMNMVKVPECRLADELGGLWENSRFTDCCLCVAGQEFQAHKAILAARSPVFSAMFEHEMEESKKNRVEINDVEPEVFKEMMCFIYTGKAPNLDKMADDLLAAADKYALERLKVMCEDALCSNLSVENAAEILILADLHSADQLKTQAVDFINYHASDVLETSGWKSMVVSHPHLVAEAYRSLASA
B2: SPOP R354H, residues 28-359 (domain or fragment)
chain: B1 chain with R327H
B3: C-terminal intrinsically disordered region of DAXX (cDAXX), fluorescently labeled (domain or fragment)
chain: SPMSSLQISNEKNLEPGKQISRSSGEQQNKGRIVSPSLLSEEPLAPSSIDAESNGEQPEELTLEEESPVSQLFELEIEALPLDTPSSVETDISSSRKQSEEPFTTVLENGAGMVSSTSFNGGVSPHNWGDSGPPCKKSRKEKKQTGSGPLGNSYVERQRSVHEKNGKKICTLPSPPSPLASLAPVADSSTRVDSPSHGLVTSSLCIPSPARLSQTPHSQPPRPGTCKTSVATQCDPEEIIVLSDSD
modifications: fluorescently labeled (fluorescently tagged cDAXX construct; the labeling methods give Rhodamine Red, N-terminal labeling, for cDAXX)
B4: fPuc peptide (fluorescently labeled SPOP-binding motif from the substrate Puckered) (peptide)
peptide: ENLACDEVTSTTSSSST
HELM: PEPTIDE1{[O=C1OC2(c3ccc(O)cc3Oc3cc(O)ccc32)c2ccc(C(=O)[*:2])cc21].E.N.L.A.C.D.E.V.T.S.T.T.S.S.S.S.T.[am]}$$$$V2.0
SMILES: CC(C)C[C@H](NC(=O)[C@H](CC(N)=O)NC(=O)[C@H](CCC(=O)O)NC(=O)c1ccc2c(c1)C(=O)OC21c2ccc(O)cc2Oc2cc(O)ccc21)C(=O)N[C@@H](C)C(=O)N[C@@H](CS)C(=O)N[C@@H](CC(=O)O)C(=O)N[C@@H](CCC(=O)O)C(=O)N[C@H](C(=O)N[C@H](C(=O)N[C@@H](CO)C(=O)N[C@H](C(=O)N[C@H](C(=O)N[C@@H](CO)C(=O)N[C@@H](CO)C(=O)N[C@@H](CO)C(=O)N[C@@H](CO)C(=O)N[C@H](C(N)=O)[C@@H](C)O)[C@@H](C)O)[C@@H](C)O)[C@@H](C)O)C(C)C

What was measured:
[1] = biological target: the molecule itself; experiment: composite-gradient multiangle light scattering
[2] = biological target: B2; experiment: fluorescence polarisation
[3] = biological target: SPOP R221C, residues 28-359 (UniProt O43791 28-359, R221C); experiment: fluorescence polarisation
[4] = biological target: B1; experiment: fluorescence polarisation
[5] = biological target: SPOP mutBACK (Y353E), residues 28-359 (UniProt O43791 28-359, Y353E); experiment: fluorescence polarisation

Kd [2] [µM] | Kd [3] [µM] | Kd [4] [µM] | Kd [5] [µM] | Binder | Kd [1] [µM]
– | – | – | – | B1 | 2.7
– | – | – | – | B2 | 26.9
3 | 3.2 | 1.2 | – | B3 | –
5.1 | 5.9 | 9.8 | 4.3 | B4 | –
